Measured values published in article PMC11931385, “Structural and functional analysis of cancer-associated missense variants in the retinoblastoma protein pocket domain” (The Journal of Biological Chemistry, 2025).
Changes are numbered by the printed parent chain. Names may count otherwise. No end group written: not given here. TMR = tetramethyl rhodamine dye

T1: Rb^P I703F (human, UniProt P06400 380-788, I703F)
T1 construct: also called variant 64
T1 sequence (looked up): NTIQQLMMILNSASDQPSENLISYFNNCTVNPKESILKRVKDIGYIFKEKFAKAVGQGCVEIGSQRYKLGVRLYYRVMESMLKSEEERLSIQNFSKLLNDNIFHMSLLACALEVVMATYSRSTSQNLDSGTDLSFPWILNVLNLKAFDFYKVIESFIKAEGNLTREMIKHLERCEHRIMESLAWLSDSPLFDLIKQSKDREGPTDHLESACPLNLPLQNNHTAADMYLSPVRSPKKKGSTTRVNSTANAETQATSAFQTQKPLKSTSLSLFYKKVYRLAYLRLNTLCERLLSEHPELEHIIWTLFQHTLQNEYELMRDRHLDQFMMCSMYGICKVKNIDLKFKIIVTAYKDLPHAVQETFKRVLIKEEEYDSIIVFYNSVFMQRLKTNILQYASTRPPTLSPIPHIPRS

T2: retinoblastoma protein pocket domain (Rb^P), wild type (human, UniProt P06400 380-788)
T2 construct: also called WT Rb^P; WT
T2 sequence (looked up): T1 sequence (looked up) with F324I

T3: Rb^P E554K (human, UniProt P06400 380-788, E554K)
T3 construct: also called variant 28
T3 sequence (looked up): T1 sequence (looked up) with E175K, F324I

T4: Rb^P S474I (human, UniProt P06400 380-788, S474I)
T4 construct: also called variant 11
T4 sequence (looked up): T1 sequence (looked up) with S95I, F324I

T5: Rb^P E693A (human, UniProt P06400 380-788, E693A)
T5 construct: also called variant 60
T5 sequence (looked up): T1 sequence (looked up) with E314A, F324I

B1: TMR-E2F1^TD, peptide of the E2F1 transactivation domain (peptide)
peptide: {TMR}-GEGIRDLFDCDFGDLTPLD
notes: also called E2F^TD; source: synthetic peptide, bought: GenScript
B2: TMR-E7^LxCxE, LxCxE peptide of the E7 oncoprotein from HPV (peptide)
peptide: DLYCYEQLN
modifications: also: TMR label, position not given here
notes: source: synthetic peptide, bought: GenScript

Assays:
Details in all cases: both partners purified
[1] = target: T1, Rb^P I703F; experiment: fluorescence polarisation; 25 °C after warming to 37 °C (7 min ramp, 2 min at 37 °C), 1 min on ice and 3 min at 25 °C; unlabeled Rb^P against 1.5 nM TMR-E2F1^TD or 7.5 nM TMR-E7^LxCxE; 25 mM Tris pH 8.0, 200 mM NaCl, 1 mM DTT, 0.1% Tween-20; apparent Kd
[2] = target: T2, retinoblastoma protein pocket domain …; experiment: as above
[3] = target: T3, Rb^P E554K; experiment: as above
[4] = target: T4, Rb^P S474I; experiment: fluorescence polarisation; 37 °C, after the 25 °C reading ramped over 7 min to 37 °C and 2 min incubation; unlabeled Rb^P against 1.5 nM TMR-E2F1^TD or 7.5 nM TMR-E7^LxCxE; 25 mM Tris pH 8.0, 200 mM NaCl, 1 mM DTT, 0.1% Tween-20; apparent Kd
[5] = target: T5, Rb^P E693A; experiment: as above

Binder	Kd [1] [nM]	Kd [2] [nM]	Kd [3] [nM]	Kd [4] [nM]	Kd [5] [nM]
B1	94	17	1740	775	59
B2	53	7	24	18	24
